# T1: human TIGIT expressed on CHO-K1 cells (human, UniProt Q495A1 22-244)
# T1 construct: whole, on cells; also called human TIGIT-CHO-K1 cells; human TIGIT over-expressing cell line
# T1 sequence (looked up): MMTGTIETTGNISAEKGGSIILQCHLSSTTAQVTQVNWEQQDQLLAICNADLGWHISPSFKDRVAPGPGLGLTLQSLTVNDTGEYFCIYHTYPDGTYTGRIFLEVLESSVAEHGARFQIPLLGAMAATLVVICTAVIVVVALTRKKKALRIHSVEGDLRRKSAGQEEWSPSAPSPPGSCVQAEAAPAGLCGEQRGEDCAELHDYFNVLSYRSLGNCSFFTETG
# T2: His-tagged human TIGIT (human, UniProt Q495A1 22-141)
# T2 construct: SPR analyte; also called human TIGIT protein; not shown: His tag
# T2 sequence: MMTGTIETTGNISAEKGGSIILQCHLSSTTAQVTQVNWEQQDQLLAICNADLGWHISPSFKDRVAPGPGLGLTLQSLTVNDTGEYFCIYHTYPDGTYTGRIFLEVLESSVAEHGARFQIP
# T3: TIGIT on TIGIT-over expressing NFAT-Luc/Jurkat effector cells (GenScript reporter cell line) (UniProt Q495A1 22-244, limits assumed)
# T3 sequence (looked up): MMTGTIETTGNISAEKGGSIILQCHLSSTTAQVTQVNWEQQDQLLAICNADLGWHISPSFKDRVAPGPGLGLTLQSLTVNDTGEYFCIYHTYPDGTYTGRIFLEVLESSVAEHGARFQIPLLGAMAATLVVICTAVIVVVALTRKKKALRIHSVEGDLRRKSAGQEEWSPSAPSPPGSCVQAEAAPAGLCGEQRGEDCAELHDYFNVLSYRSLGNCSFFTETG
# How the values were obtained:
# [1] = target: T1, human TIGIT expressed on CHO-K1 cells; assay: flow cytometry competition: biotinylated CD155-Fc on human TIGIT-CHO-K1 cells
# His-tagged human TIGIT [2] = target: T2, His-tagged human TIGIT; assay: SPR (Biacore T200), antibody captured, His-tagged TIGIT analyte
# [3] = target: T4, His-tagged cynomolgus TIGIT (cynomolgus, UniProt A0A7N9I9V4 89-209); assay: as above
# T4 construct: SPR analyte; also called cynomolgus TIGIT protein; not shown: His tag
# T4 sequence (A0A7N9I9V4 entry or part of it): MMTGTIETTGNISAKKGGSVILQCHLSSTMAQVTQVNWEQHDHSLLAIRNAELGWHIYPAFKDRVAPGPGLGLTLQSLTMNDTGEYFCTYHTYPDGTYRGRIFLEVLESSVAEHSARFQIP
# [4] = target: T3, TIGIT on TIGIT-over expressing …; assay: cell-based or functional assay
# [5] = target: T5, cynomolgus TIGIT expressed on CHO-K1 cells (cynomolgus, UniProt A0A7N9I9V4 89-312); assay: flow cytometry on CHO-K1 cells expressing cynomolgus TIGIT
# T5 construct: whole, on cells; also called cynomolgus TIGIT over-expressing cell line
# T5 sequence (A0A7N9I9V4 entry or part of it): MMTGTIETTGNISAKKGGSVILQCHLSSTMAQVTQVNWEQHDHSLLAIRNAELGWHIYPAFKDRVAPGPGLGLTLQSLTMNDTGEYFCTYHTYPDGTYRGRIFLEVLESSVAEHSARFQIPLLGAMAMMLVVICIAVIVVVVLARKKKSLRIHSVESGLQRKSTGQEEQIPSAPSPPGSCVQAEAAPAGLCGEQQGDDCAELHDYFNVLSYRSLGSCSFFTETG
# [6] = target: T1, human TIGIT expressed on CHO-K1 cells; assay: flow cytometry on CHO-K1 cells expressing human TIGIT
# His-tagged human TIGIT [7] = target: T2, His-tagged human TIGIT; assay: SPR experiment 3, IgG from HEK293 supernatant captured
IC50 [1],Kd (His-tagged human TIGIT [2]),koff (His-tagged human TIGIT [2]),kon (His-tagged human TIGIT [2]),Kd [3],koff [3],kon [3],Bottom (RLU) [4],EC50 [4],Top (RLU) [4],EC50 [5],EC50 [6],Kd (His-tagged human TIGIT [7]),koff (His-tagged human TIGIT [7]),kon (His-tagged human TIGIT [7]),Binder
0.22 nM,0.16 nM,0.00019 s⁻¹,1.1e+06 M⁻¹ s⁻¹,0.047 nM,3.7e-05 s⁻¹,790000 M⁻¹ s⁻¹,53900 RLU,2.05 nM,144000 RLU,0.473 nM,0.294 nM,,,,"huTIGIT-19-1 (antibody, human IgG1, kappa, V domains shown, Humanized IgG; also called 19VH4.M9 + 19VL1.M4) VH: QVQLVQSGAEVKKPGASVKVSCKASGYTFTRYSMYWVRQAPGQGLEWIAFIDAYSGGSTYNQRFRGKATLTVDTSISTAYMELSRLRSDDTAVYYCARGGDYGWYLGVWGQGTLVTVSS VL: DIQMTQSPSSLSASVGDRVTITCRPSENIYTYLSWYQQKPGKAPKLLIYNAKSLPSGVPSRFSGSGSGTDFTLTISSLQPEDFATYYCQHHYGNPLTFGQGTKVEIKR"
0.26 nM,0.49 nM,0.00059 s⁻¹,1.2e+06 M⁻¹ s⁻¹,0.087 nM,7.3e-05 s⁻¹,840000 M⁻¹ s⁻¹,51300 RLU,4.28 nM,148000 RLU,0.408 nM,0.172 nM,,,,"huTIGIT-19-4 (antibody, human IgG1, kappa, V domains shown, Humanized IgG; also called 19VH4.M10 + 19VL1.M7) VH: QVQLVQSGAEVKKPGASVKVSCKASGYTFTRYSMYWVRQAPGQGLEWIAFIDAYSGGSTYAQKFQGKATLTVDTSISTAYMELSRLRSDDTAVYYCARGGDYGWYLGVWGQGTLVTVSS VL: DIQMTQSPSSLSASVGDRVTITCRASQSIYSYLSWYQQKPGKAPKLLIYNAKSLPSGVPSRFSGSGSGTDFTLTISSLQPEDFATYYCQHHYGNPLTFGQGTKVEIKR"
0.24 nM,0.19 nM,0.00021 s⁻¹,1.1e+06 M⁻¹ s⁻¹,0.055 nM,5.2e-05 s⁻¹,950000 M⁻¹ s⁻¹,55200 RLU,2.39 nM,155000 RLU,0.44 nM,0.256 nM,,,,"huTIGIT-19-2 (antibody, human IgG1, kappa, V domains shown, Humanized IgG; also called 19VH4.M9 + 19VL1.M7) VH: QVQLVQSGAEVKKPGASVKVSCKASGYTFTRYSMYWVRQAPGQGLEWIAFIDAYSGGSTYNQRFRGKATLTVDTSISTAYMELSRLRSDDTAVYYCARGGDYGWYLGVWGQGTLVTVSS VL: DIQMTQSPSSLSASVGDRVTITCRASQSIYSYLSWYQQKPGKAPKLLIYNAKSLPSGVPSRFSGSGSGTDFTLTISSLQPEDFATYYCQHHYGNPLTFGQGTKVEIKR"
0.21 nM,0.28 nM,0.0003 s⁻¹,1.1e+06 M⁻¹ s⁻¹,0.054 nM,4.1e-05 s⁻¹,760000 M⁻¹ s⁻¹,53700 RLU,2.65 nM,142000 RLU,0.384 nM,0.196 nM,,,,"huTIGIT-19-3 (antibody, human IgG1, kappa, V domains shown, Humanized IgG; also called 19VH4.M10 + 19VL1.M4) VH: QVQLVQSGAEVKKPGASVKVSCKASGYTFTRYSMYWVRQAPGQGLEWIAFIDAYSGGSTYAQKFQGKATLTVDTSISTAYMELSRLRSDDTAVYYCARGGDYGWYLGVWGQGTLVTVSS VL: DIQMTQSPSSLSASVGDRVTITCRPSENIYTYLSWYQQKPGKAPKLLIYNAKSLPSGVPSRFSGSGSGTDFTLTISSLQPEDFATYYCQHHYGNPLTFGQGTKVEIKR"
,,,,,,,,,,,,46 nM,0.0089 s⁻¹,190000 M⁻¹ s⁻¹,"reshaped TIGIT-3 antibody 3VH3 + 3VL1.M3 (antibody, V domains shown, Full-length IgG, tested as HEK293 supernatant) VH: EVQLVESGGGLVQPGGSLRLSCAASGFTFSSYGMSWVRQAPGKGLELVATIKSDGGSTNLPDSVKGRFTISRDNSKNTLYLQMNSLRAEDTAVYYCVRGYFDYWGQGTTVTVSS VL: DIQMTQSPSSLSASVGDRVTITCKASQDVKTAVAWYQQKPGKVPKLLIYWASTRHSGVPSRFSGSGSGTDFTLTISSLQPEDVATYYCQQYYSTPYTFGGGTKVEIK"
